Measured values as given in PMC4927293.

Target: heat-aggregated GFP

Work on “Hsp104 D484K (from UniProt P31539 1-908) (enzyme)” yielded an apparent KM for aggregated GFP from initial rates of GFP disaggregation by Hsp104 D484K (0.06 uM, 10 mM ATP): fold gain of affinity with Ssa1 (2 uM) and Ydj1 (0.5 uM) greater than 25 fold and an apparent KM for aggregated GFP from initial rates of GFP disaggregation by Hsp104 D484K (0.06 uM, 10 mM ATP): fold increase of the apparent KM with 1 mM ADP of 2 fold.
